# From US20050043221A1 (BROWN UNIVERSITY, published 2005)
# T1: recombinant human biglycan core polypeptide (no side chains), His-tagged, vaccinia system (human, UniProt P21810 38-368)
# T1 construct: GAG attachment sites present but not substituted; also called BGN; core biglycan; not shown: N-terminal cassette His6-[Glu-Ser]-factor Xa site-[Leu-Glu]
# T1 sequence: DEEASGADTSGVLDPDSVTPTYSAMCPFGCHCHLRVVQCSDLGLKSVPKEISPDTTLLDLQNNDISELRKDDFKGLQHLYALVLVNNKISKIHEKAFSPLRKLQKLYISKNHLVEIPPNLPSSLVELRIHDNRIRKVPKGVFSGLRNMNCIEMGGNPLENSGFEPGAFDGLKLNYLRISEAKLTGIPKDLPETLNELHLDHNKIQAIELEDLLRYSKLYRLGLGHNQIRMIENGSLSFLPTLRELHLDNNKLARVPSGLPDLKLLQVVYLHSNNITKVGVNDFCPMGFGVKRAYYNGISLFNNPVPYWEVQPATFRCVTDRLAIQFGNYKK
# T2: α-sarcoglycan, 35S-methionine-labelled, in vitro translated (human, UniProt Q16586 1-387, limits assumed)
# T2 construct: also called alpha-sarcoglycan
# T2 sequence (looked up): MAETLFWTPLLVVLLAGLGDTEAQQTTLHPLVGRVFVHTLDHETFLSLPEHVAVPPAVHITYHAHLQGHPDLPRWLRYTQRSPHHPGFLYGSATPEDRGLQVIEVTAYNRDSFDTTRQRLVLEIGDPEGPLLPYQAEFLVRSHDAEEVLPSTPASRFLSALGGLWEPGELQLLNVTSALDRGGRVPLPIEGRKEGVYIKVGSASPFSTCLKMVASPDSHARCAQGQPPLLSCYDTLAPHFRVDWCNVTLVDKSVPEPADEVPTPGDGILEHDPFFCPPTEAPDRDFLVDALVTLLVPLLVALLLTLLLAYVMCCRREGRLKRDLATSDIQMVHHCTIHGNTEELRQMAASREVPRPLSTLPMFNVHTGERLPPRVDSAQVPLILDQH
# B1: recombinant decorin core polypeptide (no side chains), vaccinia system (other, UniProt P07585 31-359, looked up, not shown: small tags and cut ends)
# chain: DEASGIGPEVPDDRDFEPSLGPVCPFRCQCHLRVVQCSDLGLDKVPKDLPPDTTLLDLQNNKITEIKDGDFKNLKNLHALILVNNKISKVSPGAFTPLVKLERLYLSKNQLKELPEKMPKTLQELRAHENEITKVRKVTFNGLNQMIVIELGTNPLKSSGIENGAFQGMKKLSYIRIADTNITSIPQGLPPSLTELHLDGNKISRVDAASLKGLNNLAKLGLSFNSISAVDNGSLANTPHLRELHLDNNKLTRVPGGLAEHKYIQVVYLHNNNISVVGSSDFCPPGHNTKKASYSGVSLFSNPVQYWEIQPSTFRCVYVRSAIQLGNYK
# B2: recombinant decorin proteoglycan (core and side chains), vaccinia system (other, UniProt P07585 31-359, looked up, not shown: small tags and cut ends)
# chain: DEASGIGPEVPDDRDFEPSLGPVCPFRCQCHLRVVQCSDLGLDKVPKDLPPDTTLLDLQNNKITEIKDGDFKNLKNLHALILVNNKISKVSPGAFTPLVKLERLYLSKNQLKELPEKMPKTLQELRAHENEITKVRKVTFNGLNQMIVIELGTNPLKSSGIENGAFQGMKKLSYIRIADTNITSIPQGLPPSLTELHLDGNKISRVDAASLKGLNNLAKLGLSFNSISAVDNGSLANTPHLRELHLDNNKLTRVPGGLAEHKYIQVVYLHNNNISVVGSSDFCPPGHNTKKASYSGVSLFSNPVQYWEIQPSTFRCVYVRSAIQLGNYK
# modifications: glycosaminoglycan side chain
# notes: also called DEC-PG; DECPG
# Columns and labels:
# [1] = molecular target: T1, recombinant human biglycan core …; assay: co-immunoprecipitation in solution with anti-biglycan or anti-poly-His, protein G beads
# [2] = molecular target: B1; assay: blot overlay
# [3] = molecular target: T2, α-sarcoglycan, 35S-methionine-labelled, …; assay: blot overlay with 35S in vitro translated sarcoglycan
# [4] = molecular target: B2; assay: as above
# [5] = molecular target: B1; assay: as above
# [6] = molecular target: T1, recombinant human biglycan core …; assay: as above
binder,measurement,setting,value
"β-sarcoglycan, 35S-methionine-labelled, in vitro translated (other, human, UniProt Q16585 1-318, looked up, also called beta-sarcoglycan) MAAAAAAAAEQQSSNGPVKKSMREKAVERRSVNKEHNSNFKAGYIPIDEDRLHKTGLRGRKGNLAICVIILLFILAVINLIITLVIWAVIRIGPNGCDSMEFHESGLLRFKQVSDMGVIHPLYKSTVGGRRNENLVITGNNQPIVFQQGTTKLSVENNKTSITSDIGMQFFDPRTQNILFSTDYETHEFHLPSGVKSLNVQKASTERITSNATSDLNIKVDGRAIVRGNEGVFIMGKTIEFHMGGNMELKAENSIILNGSVMVSTTRLPSSSSGDQLGSGDWVRYKLCMCADGTLFKVQVTSQNMGCQISDNPCGNTH",binding result,[1],no binding
same,binding result,[2],no binding
B1,binding result,[3],no binding
B2,binding result,[3],no binding
"γ-sarcoglycan, 35S-methionine-labelled, in vitro translated (other, human, UniProt Q13326 1-291, looked up, also called gamma sarcoglycan) MVREQYTTATEGICIERPENQYVYKIGIYGWRKRCLYLFVLLLLIILVVNLALTIWILKVMWFSPAGMGHLCVTKDGLRLEGESEFLFPLYAKEIHSRVDSSLLLQSTQNVTVNARNSEGEVTGRLKVGPKMVEVQNQQFQINSNDGKPLFTVDEKEVVVGTDKLRVTGPEGALFEHSVETPLVRADPFQDLRLESPTRSLSMDAPRGVHIQAHAGKIEALSQMDILFHSSDGMLVLDAETVCLPKLVQGTWGPSGSSQSLYEICVCPDGKLYLSVAGVSTTCQEHNHICL",binding result,[4],no binding
same,binding result,[5],no binding
same,binding result,[6],binds
